Read-outs that look alike come from different tables or passages of the source.
Assays:
Assay in all cases: cell-based or functional assay
[1] = biological target: receptor of ecotropic murine leukaemia virus Rec1 (murine) (UniProt Q09143)
[2] = biological target: receptor of ecotropic murine leukaemia virus Rec1 (murine) (UniProt Q09143); remark: listed apart in the source
[3] = biological target: receptor of ecotropic murine leukaemia virus Rec1 (murine) (UniProt Q09143); remark: listed apart in the source

Chain of envelope protein of ecotropic Friend murine leukaemia virus molecular clone PVC-211 (P26803 35-676 limits assumed): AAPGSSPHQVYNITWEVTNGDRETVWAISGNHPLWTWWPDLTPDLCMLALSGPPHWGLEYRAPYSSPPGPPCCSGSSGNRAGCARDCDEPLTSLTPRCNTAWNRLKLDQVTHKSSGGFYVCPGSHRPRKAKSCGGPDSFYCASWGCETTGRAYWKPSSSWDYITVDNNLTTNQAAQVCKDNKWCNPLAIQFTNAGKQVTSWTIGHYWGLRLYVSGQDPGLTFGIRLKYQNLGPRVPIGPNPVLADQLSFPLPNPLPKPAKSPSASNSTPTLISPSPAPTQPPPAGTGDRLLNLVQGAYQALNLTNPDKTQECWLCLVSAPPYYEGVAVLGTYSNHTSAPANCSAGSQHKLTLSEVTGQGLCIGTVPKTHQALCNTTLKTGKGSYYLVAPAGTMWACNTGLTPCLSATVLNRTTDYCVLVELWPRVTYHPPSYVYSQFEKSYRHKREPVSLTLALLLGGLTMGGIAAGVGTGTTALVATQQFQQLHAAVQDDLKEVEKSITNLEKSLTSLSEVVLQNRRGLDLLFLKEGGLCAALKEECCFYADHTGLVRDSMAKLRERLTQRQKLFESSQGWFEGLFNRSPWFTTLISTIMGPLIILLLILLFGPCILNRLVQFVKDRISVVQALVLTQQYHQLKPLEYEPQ
Chain of wild type envelope of ecotropic Moloney murine leukaemia virus (P03385 34-665 limits assumed): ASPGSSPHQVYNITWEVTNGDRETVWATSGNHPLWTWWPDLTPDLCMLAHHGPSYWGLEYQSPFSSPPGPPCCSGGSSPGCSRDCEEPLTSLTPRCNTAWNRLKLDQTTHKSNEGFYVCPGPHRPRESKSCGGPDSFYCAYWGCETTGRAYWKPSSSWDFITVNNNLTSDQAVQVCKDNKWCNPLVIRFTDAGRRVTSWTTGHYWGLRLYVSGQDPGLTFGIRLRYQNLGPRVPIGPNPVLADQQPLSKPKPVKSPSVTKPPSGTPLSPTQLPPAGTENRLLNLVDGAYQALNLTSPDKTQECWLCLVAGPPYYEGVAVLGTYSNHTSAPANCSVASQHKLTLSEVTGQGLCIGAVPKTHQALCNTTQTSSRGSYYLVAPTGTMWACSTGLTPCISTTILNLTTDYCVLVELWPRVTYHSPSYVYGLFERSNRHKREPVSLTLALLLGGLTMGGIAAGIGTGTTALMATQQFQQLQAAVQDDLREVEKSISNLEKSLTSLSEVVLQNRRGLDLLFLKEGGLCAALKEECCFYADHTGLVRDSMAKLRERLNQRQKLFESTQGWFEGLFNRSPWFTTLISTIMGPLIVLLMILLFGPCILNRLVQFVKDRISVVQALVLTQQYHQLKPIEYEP
Chain of receptor of ecotropic murine leukaemia virus Rec1 (murine) (Q09143 whole entry): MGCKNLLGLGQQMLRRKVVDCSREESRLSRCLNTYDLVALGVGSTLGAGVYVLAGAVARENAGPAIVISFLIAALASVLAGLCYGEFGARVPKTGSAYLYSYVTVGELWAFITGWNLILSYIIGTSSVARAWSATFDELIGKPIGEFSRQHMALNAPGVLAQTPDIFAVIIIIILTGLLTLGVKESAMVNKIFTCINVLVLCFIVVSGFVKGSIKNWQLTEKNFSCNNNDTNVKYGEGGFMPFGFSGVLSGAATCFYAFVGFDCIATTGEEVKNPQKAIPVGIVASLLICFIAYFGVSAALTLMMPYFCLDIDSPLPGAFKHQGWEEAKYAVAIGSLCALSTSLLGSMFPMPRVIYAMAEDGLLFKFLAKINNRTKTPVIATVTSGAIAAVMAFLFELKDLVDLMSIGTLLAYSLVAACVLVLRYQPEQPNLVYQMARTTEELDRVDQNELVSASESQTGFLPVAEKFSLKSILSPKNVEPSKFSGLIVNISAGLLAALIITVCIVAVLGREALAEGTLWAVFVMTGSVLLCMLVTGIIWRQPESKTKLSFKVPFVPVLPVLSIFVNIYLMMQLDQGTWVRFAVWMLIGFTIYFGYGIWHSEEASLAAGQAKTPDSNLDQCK

Substance | transduction efficiency (% GFP positive cells) in CHO-S Rec1-I-puro cells [1] | fold gene transfer efficiency, CHO-S Rec1-I-puro cells against parental CHO-S cells [2] | fold gene transfer, CHO-S Rec1-I-puro cells against CHO-S cells [2] | gene transfer efficiency (% GFP positive cells) in CHO-S Rec1-I-puro cells [2] | transduction efficiency (% GFP positive cells) in BHK Rec1-I-puro cells [2] | transduction efficiency (% GFP positive cells) in CHO-S Rec1-I-puro cells [2] | transduction efficiency (% GFP positive cells) in HT1080 Rec1-I-neo cells [2] | transduction efficiency (% GFP positive cells) in CHO T-REx Rec1-I-neo cells [3] | transduction efficiency (% GFP positive cells) in CHO-K1 Rec1-I-neo cells [3] | transduction efficiency (% GFP positive cells) in CHO-S Rec1-I-puro cells [3] | fold gene transfer efficiency, CHO-S Rec1-I-puro cells against CHO-S cells [2] | fold transduction efficiency in CHO-S Rec1-I-puro cells, MLV (PVC-211 Env) against MLV (wtEnv) vector particles [2] | puromycin-resistant cell colonies counted in ten fields, CHO-S Rec1-I-neo cells transduced once [2] | puromycin-resistant cell colonies counted in ten fields, CHO-S Rec1-I-neo cells transduced three times [2]
wild type envelope of ecotropic Moloney murine leukaemia virus (from UniProt P03385 34-665) | 0.56% | 3 fold | 3.7 fold | 1.14% | 4.72% | 0.55% | 0.21% | 9.95% | 14.7% | 12.1% |  |  |  | 
envelope protein of ecotropic Friend murine leukaemia virus molecular clone PVC-211 (from UniProt P26803 35-676) | 19% |  |  |  | 31% | 15.5% | 16% | 71.1% | 48.3% | 73% | 13 fold | > 33 fold | 41 colonies | 230 colonies
